Test results taken from patent US20120142098A1 (NOVIMMUNE S A, published 2012).
Each block holds one binder with its values, some of them ahead of it.

How the values were obtained:
[1] = biological target: T1, human TLR4/MD2 complex expressed on the cell surface (human, UniProt O00206 24-839; Q9Y6Y9 19-160); assay: FACS on CHO TLR4/MD2 transfectants
T1 construct: also called CHO TLR4/MD2 transfectants

[2] = biological target: T1, human TLR4/MD2 complex expressed on the …; assay: FACS on CHO stable cell line expressing human TLR4-MD2 complex
Experimental: Studies were then designed to evaluate which residues of the mouse CH2 domain are necessary for Fc-mediated inhibitory activity. Starting with the chimeric IgG115C1 containing the full length mouse CH2 domain, the approach was to identify the critical region of the CH2 domain by introducing a maximum number of human residues without observing a loss of the Fc-mediated inhibitory activity. The identification of these critical residues was determined by subdividing the mouse CH2 into 4 parts (A: EU positions 231 to 261; B: EU positions 319 to 340; C: EU positions 296-318 and D: EU positions 262 to 295) and introducing for each of the 4 sub-regions the corresponding CH2 amino acid sequence of a human IgG1 (see FIG. 6A). The sub-division of the mouse CH2 into four subregions was purely based on amino acid sequence homology with the human CH2. The four heavy chain mutants were engineered by overlapping PCR and recombinant MAbs expressed in PEAK. The corresponding antibodies were purified from transfected-cell supernatants by protein G affinity column chromatography and binding to CHO stable cell line expressing human TLR4-MD2 complex on their surface of the following antibodies was determined: muCH2-chimeric IgG1 15C1; chimeric IgG1 15C1; A mu 231-261 CH2 chimeric IgG1 15C1; B mu 319-340 CH2 chimeric IgG1 15C1; C mu 296-318 CH2 chimeric IgG1 15C1; and D mu 262-295 CH2 chimeric IgG1 15C1. 4×10⁵ cells/well were incubated for 30 minutes at 4° C. in 50 μl of phosphate buffered saline (PBS) with 1% bovine serum albumin (PBS-1% BSA) and either serial dilution of the appropriate antibody or an irrelevant human IgG1 isotype control. Cells were washed once with PBS-1% BSA and incubated in the same buffer with FMAT-Blue®-conjugated goat anti-human Kappa light chain antibody (1:250 dilution, Sigma K3502) for 30 minutes at 4° C. Cells were washed twice with PBS-1% BSA and analyzed using a FACScalibur® flow cytometer […] in the FL-4 channel.

[3] = biological target: T1, human TLR4/MD2 complex expressed on the …; assay: binding to TLR4/MD-2 transfected CHO cells
[4] = biological target: T1, human TLR4/MD2 complex expressed on the …; assay: FACS on CHO stable cell line expressing human TLR4/MD2
[5] = biological target: T1, human TLR4/MD2 complex expressed on the …; assay: FACS (MFI) on CHO cells expressing human TLR4-MD2; PEAK supernatants at 0.33, 0.11 and 0.04 ug/ml
Experimental: The binding of these mutants was analyzed by FACS on cells expressing recombinant human TLR4-MD2. PEAK cells were co-transfected with 1 ug of combinations of expression vectors encoding 15C1 humanized VH mutant 1 or 2 together with 15C1 humanized VL A26 or 15C1 humanized VH 4-28 together with 15C1 humanized VL mutant 1, 2, 3 or 4 shown in Example 4 using the Trans IT-LT1 transfection reagent (Mirus Bio Corporation, Madison Wis.). All transfections were carried out in duplicates. 72 h post-transfection, PEAK cells supernatants were collected and the concentration of recombinant human IgG1/Kappa measured by ELISA. The antibody concentrations of all the supernatants were then adjusted to 0.33 μg/ml. These supernatants and two serial dilutions of 0.11 and 0.04 ug/ml were then tested for binding to CHO cells expressing human TLR4-MD2 at their surface by FACS. 5×10⁵ cells were incubated with the diluted PEAK supernatant for 1 h at 4° C.

T1 sequence (O00206 24-839 limits assumed, chain 1 of 2): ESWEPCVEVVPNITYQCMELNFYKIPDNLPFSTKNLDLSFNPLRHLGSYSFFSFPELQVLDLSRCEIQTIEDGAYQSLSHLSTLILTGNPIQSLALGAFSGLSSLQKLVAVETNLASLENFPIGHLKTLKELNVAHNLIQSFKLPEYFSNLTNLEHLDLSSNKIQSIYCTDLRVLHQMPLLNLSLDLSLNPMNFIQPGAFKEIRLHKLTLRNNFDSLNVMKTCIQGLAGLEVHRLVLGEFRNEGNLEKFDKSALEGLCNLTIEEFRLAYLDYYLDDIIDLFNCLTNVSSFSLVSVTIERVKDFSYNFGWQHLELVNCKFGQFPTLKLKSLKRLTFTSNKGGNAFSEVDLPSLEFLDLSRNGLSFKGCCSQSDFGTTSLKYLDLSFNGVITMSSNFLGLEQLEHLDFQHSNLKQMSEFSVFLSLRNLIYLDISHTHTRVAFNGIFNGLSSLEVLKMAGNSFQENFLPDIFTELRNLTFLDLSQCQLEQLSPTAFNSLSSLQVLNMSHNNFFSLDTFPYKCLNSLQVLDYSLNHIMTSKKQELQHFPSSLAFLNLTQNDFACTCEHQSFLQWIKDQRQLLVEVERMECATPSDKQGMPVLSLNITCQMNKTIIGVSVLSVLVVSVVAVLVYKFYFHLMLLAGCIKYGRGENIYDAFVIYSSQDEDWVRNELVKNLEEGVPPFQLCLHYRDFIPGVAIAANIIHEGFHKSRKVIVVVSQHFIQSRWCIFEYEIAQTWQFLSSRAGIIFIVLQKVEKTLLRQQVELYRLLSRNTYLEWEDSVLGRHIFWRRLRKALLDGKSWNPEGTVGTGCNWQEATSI
T1 sequence (Q9Y6Y9 19-160 R56G limits assumed, chain 2 of 2): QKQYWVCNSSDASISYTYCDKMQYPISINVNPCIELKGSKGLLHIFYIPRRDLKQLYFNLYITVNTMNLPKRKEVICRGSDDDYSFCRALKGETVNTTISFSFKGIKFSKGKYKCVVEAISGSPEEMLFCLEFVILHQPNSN

binding result [1]: binds
B8: huCH2-mouse IgG1 15C1 (antibody, V domains shown)
VH: DVQLQESGPDLIQPSQSLSLTCTVTGYSITGGYSWHWIRQFPGNKLEWMGYIHYSGYTDFNPSLKTRISITRDTSKNQFFLQLNSVTTEDTATYYCARKDPSDGFPYWGQGTLVTVSA
VL: DIVMTQSPATLSVTPGDRVSLSCRASQSISDHLHWYQQKSHESPRLLIKYASHAISGIPSRFSGSGSGTDFTLSIKSVEPEDIGVYYCQNGHSFPLTFGAGTKLELK
notes: domain: CH1 and hinge; The CH2 domain of mouse IgG1 is replaced with that of human IgG1; Limits are in EU numbering; also called mouse IgG1 15C1 containing human CH2; not shown: human IgG1 heavy chain CH2 domain, EU positions 231 to 340; mouse IgG1 heavy chain CH3 domain (after EU position 340); mouse kappa light chain constant region

binding result [4]: binds
B9: chimeric IgG1 15C1 mutant # G (NAAF at EU positions 325 to 328) (antibody, V domains shown)
VH: B8 VH
VL: B8 VL
notes: Positions are in EU numbering; not shown: human IgG1 heavy chain constant region; human Kappa light chain constant region

binding result [4]: binds
B10: chimeric IgG1 15C1 mutant # D (SAAL at EU positions 325 to 328) (antibody, V domains shown)
VH: B8 VH
VL: B8 VL
notes: as for B9

binding result [2]: binds
B11: D mu 262-295 CH2 chimeric IgG1 15C1 (antibody, V domains shown)
VH: B8 VH
VL: B8 VL
notes: copies: 2 + 2

binding result [4]: binds
B12: chimeric IgG1 15C1 mutant # E (NAAL at EU positions 325 to 328) (antibody, V domains shown)
VH: B8 VH
VL: B8 VL
notes: as for B9

binding result [4]: binds
B13: chimeric IgG1 15C1 mutant # F (SKAF at EU positions 325 to 328) (antibody, V domains shown)
VH: B8 VH
VL: B8 VL
notes: as for B9

binding result [4]: binds
B14: chimeric IgG1 15C1 mutant # H (NKAF at EU positions 325 to 328) (antibody, V domains shown)
VH: B8 VH
VL: B8 VL
notes: as for B9

binding result [3]: binds
B15: chimeric MAb with the 15C1 variable region on a human IgG4 backbone (antibody, V domains shown)
VH: B8 VH
VL: B8 VL
notes: also called hIgG4 15C1; human IgG4 version of 15C1

binding result [5]: binds
B16: 15C1 humanized VH mutant 1 together with 15C1 humanized VL A26 (antibody, human IgG1, V domains shown)
VH: QVQLQESGPGLVKPSDTLSLTCAVSGYSITGGYSWHWIRQPPGKGLEWMGYIHYSGYTDFNPSLKTRITISRDTSKNQFSLKLSSVTAVDTAVYYCARKDPSDAFPYWGQGTLVTVSS
VL: EIVLTQSPDFQSVTPKEKVTITCRASQSISDHLHWYQQKPDQSPKLLIKYASHAISGVPSRFSGSGSGTDFTLTINSLEAEDAATYYCQNGHSFPLTFGGGTKVEIK
notes: also called version VH mutant 1

Further lines, the binder ahead of its results:

B1: muCH2-chimeric IgG1 15C1 (antibody, V domains shown)
VH: B8 VH
VL: B8 VL
notes: domain: CH1 and hinge; The CH2 domain of human IgG1 is replaced with that of mouse IgG1; Limits are in EU numbering; also called chimeric IgG1 15C1 containing mouse CH2; muCH2 chim 15C1; not shown: mouse IgG1 heavy chain CH2 domain, EU positions 231 to 340; human IgG1 heavy chain CH3 domain (after EU position 340); human Kappa light chain constant region
binding result [1]: binds

B2: C mu 296-318 CH2 chimeric IgG1 15C1 (antibody, V domains shown)
VH: B8 VH
VL: B8 VL
notes: copies: 2 + 2
binding result [2]: binds

B3: chimeric IgG1 15C1 (antibody, V domains shown)
VH: B8 VH
VL: B8 VL
notes: also called chimeric 15C1; 15C1 on a human IgG1 backbone
binding result [2]: binds

B4: B mu 319-340 CH2 chimeric IgG1 15C1 (antibody, V domains shown)
VH: B8 VH
VL: B8 VL
notes: It is built that way here; copies: 2 + 2
binding result [2]: binds

B5: mouse IgG1 15C1 (antibody, V domains shown)
VH: B8 VH
VL: B8 VL
notes: Murine IgG1/K antibody; The hybridoma-derived and the PEAK-cell recombinant forms are treated as one molecule; also called mu15C1; murine 15C1
binding result [3]: binds

B6: A mu 231-261 CH2 chimeric IgG1 15C1 (antibody, V domains shown)
VH: B8 VH
VL: B8 VL
notes: as for B4
binding result [2]: binds

B7: chimeric IgG1 15C1 mutant # C (SAAF at EU positions 325 to 328) (antibody, V domains shown)
VH: B8 VH
VL: B8 VL
notes: as for B9
binding result [4]: binds
